The values that follow come from publication doi:10.1101/2020.08.12.247809 (bioRxiv, 2020).

The series “SEC” deals with the molecule itself. The series is described as follows: SEC.
For another series, the target named is GST-HDAC1 (mouse, UniProt O09106 1-482). The series is described as follows: pull-down.
Sequence of GST-HDAC1 (O09106 whole entry): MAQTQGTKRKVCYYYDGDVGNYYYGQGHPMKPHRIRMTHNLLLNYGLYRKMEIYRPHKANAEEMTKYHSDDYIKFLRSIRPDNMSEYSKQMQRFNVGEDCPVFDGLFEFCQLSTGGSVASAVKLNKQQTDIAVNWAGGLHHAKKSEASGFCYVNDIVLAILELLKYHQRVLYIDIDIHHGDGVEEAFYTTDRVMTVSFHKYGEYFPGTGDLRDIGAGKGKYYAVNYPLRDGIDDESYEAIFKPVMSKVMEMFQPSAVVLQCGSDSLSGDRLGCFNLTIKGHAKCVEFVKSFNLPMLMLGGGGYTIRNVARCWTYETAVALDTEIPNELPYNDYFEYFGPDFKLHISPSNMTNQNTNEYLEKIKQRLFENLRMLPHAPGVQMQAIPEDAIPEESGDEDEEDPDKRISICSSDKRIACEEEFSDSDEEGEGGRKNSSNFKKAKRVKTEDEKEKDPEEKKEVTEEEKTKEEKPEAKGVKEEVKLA

B1: His6-KIAA1841(BTB) (domain or fragment, mouse, UniProt Q68FF0-1 144-261, looked up)
chain: GPNMVIHVCDEAKSLKEDFICPRDLLISEMKYFAEYLSMDAQRWEEVDISVHCDVHIFNWLIKYVKRNTKESKDCEIPALEPGNVISILISSEFLKMDSLVEQCIQYCHKNMNAIVAA
The stoichiometry N is the number of molecules, sites or subunits per partner or assembly. Consider B1, for which, in “SEC”, the “stoichiometry N” value is 2. For the same molecule, the binding result in the series with GST-HDAC1 is listed as “binds”.
